These results are taken from article PMC10491584, “Structural convergence endows nuclear transport receptor Kap114p with a transcriptional repressor function toward TATA-binding protein” (Nature Communications, 2023).

By Kd is commonly meant the equilibrium constant for the complex coming apart. A low value points to tighter binding. The stoichiometry N is a count of units in the complex or per binding partner.

Details in all cases: both partners purified
Assay [1] addresses T1, Kap114p (wild type) (S. cerevisiae, UniProt P53067 1-1004).
T1 construct: Kap114p, S. cerevisiae, full length, amplified from total genomic DNA; GST tag removed with PreScission protease; also called karyopherin-β Kap114p; source: E. coli Rosetta, purified (GST resin, MonoQ, Superdex 200); not shown: GST, N-terminal, cleaved
T1 sequence (looked up): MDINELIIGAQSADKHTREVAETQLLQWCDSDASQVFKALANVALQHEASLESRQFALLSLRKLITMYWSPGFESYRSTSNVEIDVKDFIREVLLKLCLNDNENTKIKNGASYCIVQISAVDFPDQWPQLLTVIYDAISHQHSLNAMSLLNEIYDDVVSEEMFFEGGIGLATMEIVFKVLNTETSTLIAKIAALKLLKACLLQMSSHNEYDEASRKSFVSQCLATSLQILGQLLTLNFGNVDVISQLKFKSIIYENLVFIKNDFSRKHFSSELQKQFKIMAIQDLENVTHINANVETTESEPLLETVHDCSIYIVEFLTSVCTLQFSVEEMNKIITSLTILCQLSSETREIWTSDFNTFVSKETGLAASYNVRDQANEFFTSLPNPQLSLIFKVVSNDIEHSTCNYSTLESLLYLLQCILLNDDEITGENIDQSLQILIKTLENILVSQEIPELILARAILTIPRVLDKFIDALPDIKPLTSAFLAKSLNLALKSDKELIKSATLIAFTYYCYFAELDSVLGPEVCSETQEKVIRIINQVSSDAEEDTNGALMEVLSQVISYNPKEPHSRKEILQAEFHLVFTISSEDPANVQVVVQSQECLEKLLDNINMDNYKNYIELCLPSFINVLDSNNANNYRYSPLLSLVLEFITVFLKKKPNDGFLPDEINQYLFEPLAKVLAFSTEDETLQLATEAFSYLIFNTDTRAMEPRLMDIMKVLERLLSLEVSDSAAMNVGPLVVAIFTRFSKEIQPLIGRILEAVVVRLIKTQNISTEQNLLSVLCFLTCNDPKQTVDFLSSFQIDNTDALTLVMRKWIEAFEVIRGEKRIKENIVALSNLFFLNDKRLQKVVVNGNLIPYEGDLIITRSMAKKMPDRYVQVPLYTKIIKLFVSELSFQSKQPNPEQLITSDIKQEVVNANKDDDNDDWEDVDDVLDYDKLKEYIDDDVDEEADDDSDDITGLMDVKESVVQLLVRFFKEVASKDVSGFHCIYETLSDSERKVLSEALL
The assay can be described thus: ITC; MicroCal iTC200, 25 °C, 20 mM HEPES pH 7.4, 150 mM NaCl; 25 or 50 μM wild type or mutant Kap114p in the cell, 250 or 500 μM wild-type or mutant yTBP^C in the syringe; triplicate. Background: In ITC the heat of successive injections is recorded.

The target in assay [2] is T2, Kap114pΔ(932-941) (S. cerevisiae, UniProt P53067 1-1004, Δ(932-941)).
T2 construct: Kap114p, S. cerevisiae, full length with residues 932-941 deleted; also called Kap114p deletion mutant lacking the α-helix of the HEAT19 loop (a.a. 932-941); source: E. coli Rosetta, purified (GST resin, MonoQ, Superdex 200); not shown: GST, N-terminal, cleaved
T2 sequence (looked up): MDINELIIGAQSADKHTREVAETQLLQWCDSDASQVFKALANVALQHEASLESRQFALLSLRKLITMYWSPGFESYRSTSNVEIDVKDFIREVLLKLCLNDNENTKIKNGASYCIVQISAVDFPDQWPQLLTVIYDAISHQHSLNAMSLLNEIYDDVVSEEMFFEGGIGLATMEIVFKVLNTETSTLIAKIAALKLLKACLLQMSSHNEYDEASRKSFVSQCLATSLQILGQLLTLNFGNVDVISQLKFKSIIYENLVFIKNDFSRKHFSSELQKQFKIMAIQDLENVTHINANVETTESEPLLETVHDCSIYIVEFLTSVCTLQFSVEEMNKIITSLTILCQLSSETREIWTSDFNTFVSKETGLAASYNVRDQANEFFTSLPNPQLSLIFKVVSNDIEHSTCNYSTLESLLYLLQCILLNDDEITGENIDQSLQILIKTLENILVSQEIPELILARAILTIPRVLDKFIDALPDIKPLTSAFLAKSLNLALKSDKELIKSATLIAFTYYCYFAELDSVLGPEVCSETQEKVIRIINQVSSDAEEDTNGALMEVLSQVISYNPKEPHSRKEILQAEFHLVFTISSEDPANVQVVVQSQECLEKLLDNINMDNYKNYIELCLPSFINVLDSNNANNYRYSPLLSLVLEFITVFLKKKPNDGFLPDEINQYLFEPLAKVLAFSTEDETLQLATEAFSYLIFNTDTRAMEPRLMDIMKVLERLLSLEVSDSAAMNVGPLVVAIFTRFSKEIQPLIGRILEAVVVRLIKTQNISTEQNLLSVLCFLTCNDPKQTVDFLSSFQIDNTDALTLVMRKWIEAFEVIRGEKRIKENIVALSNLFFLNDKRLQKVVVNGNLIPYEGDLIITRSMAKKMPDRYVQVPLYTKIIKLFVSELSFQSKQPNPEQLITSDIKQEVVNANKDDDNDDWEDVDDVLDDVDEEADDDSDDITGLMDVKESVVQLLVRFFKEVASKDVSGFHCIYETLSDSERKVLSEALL
The assay is described as above.

Assay [3] concerns the target T1, Kap114p (wild type). The assay can be described thus: cryo-EM structure; components purified from E. coli, mixed at an equal molar ratio, cross-linked with 0.01% glutaraldehyde, purified by SEC; Titan Krios 300 keV. (SEC sorts molecules by how far they enter the pores of the column.)
Assay [4] addresses T3, Kap95p (S. cerevisiae, UniProt Q06142 1-861).
T3 construct: Kap95p, S. cerevisiae, full length; The purification paragraph is headed for Kap114p proteins; that Kap95p was treated alike is surmised; source: E. coli, GST-tagged construct in modified pGEX6p1; purification told for the GST-tagged proteins; not shown: GST, N-terminal, cleaved
T3 sequence (looked up): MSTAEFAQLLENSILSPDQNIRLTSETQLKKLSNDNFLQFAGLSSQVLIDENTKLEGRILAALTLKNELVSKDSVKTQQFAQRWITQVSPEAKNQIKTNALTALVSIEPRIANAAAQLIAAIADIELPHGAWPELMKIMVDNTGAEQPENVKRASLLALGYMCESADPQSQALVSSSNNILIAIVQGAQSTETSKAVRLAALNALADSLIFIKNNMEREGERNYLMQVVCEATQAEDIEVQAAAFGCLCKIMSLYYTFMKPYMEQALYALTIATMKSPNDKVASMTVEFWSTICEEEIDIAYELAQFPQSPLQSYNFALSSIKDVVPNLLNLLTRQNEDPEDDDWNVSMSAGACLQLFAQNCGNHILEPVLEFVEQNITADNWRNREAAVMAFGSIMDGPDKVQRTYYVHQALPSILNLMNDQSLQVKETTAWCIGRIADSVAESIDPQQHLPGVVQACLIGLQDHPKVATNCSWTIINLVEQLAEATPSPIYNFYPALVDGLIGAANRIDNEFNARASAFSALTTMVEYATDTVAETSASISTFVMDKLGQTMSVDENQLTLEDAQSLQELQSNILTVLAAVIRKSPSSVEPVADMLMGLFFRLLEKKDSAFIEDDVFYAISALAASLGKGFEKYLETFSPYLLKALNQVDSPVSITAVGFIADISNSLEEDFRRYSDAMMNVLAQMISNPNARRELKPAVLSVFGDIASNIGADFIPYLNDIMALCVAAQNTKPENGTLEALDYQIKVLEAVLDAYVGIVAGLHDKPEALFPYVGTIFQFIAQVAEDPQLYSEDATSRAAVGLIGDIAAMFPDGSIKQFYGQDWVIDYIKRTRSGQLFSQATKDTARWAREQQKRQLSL
The assay can be described thus: ITC; Kap95p with wild type or R141A yTBP^C; which protein was in the cell is not told for Kap95p; n = 3.

B1: core domain of yeast TATA-box binding protein (yTBP^C), wild type (domain or fragment, S. cerevisiae, UniProt P13393 61-240, looked up)
chain: SGIVPTLQNIVATVTLGCRLDLKTVALHARNAEYNPKRFAAVIMRIREPKTTALIFASGKMVVTGAKSEDDSKLASRKYARIIQKIGFAAKFTDFKIQNIVGSCDVKFPIRLEGLAFSHGTFSSYEPELFPGLIYRMVKPKIVLLIFVSGKIVLTGAKQREEIYQAFEAIYPVLSEFRKM
notes: 61-240; His tag removed with PreScission protease; also called yTBP core domain; source: E. coli Rosetta, purified (Ni-NTA, HiTrap SP, Superdex 75); not shown: His6, N-terminal, cleaved
On to B1, for which the Kd was approximately 0.001 µM in assay [1], approximately 0.158 µM in assay [2] and approximately 8.1 µM in assay [4]. The “stoichiometry N” value in assay [3] came out at 1.
